± gives the standard error.
Assay: background-corrected fluorescence of 3'-dye-labeled ssDNA relative to brightest sequence (3'-GCGCG) (fraction); higher = brighter dye fluorescence (less quenching)
Procedure: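 Single-stranded DNA is synthesized in situ on glass microarrays by 5'->3' photolithographic synthesis, with a Cy3 or Cy5 phosphoramidite coupled at the 3' end next to all 1024 permuted pentamers P1-P5. The construct is 5'-T5-(ACGT minus P5..P1 trinucleotides)-T15-P5P4P3P2P1-dye-3'; the dye is a 3' terminal modification, not part of the sequence. Arrays were scanned at 532 nm (Cy3) or 635 nm (Cy5), background from unlabeled oligos was subtracted, and values are averaged over 10 replicate features per array and at least 3 independent syntheses.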

TTTTTTGAGCATGCTGAGCATTTTTTTTTTTTTTTCTACT [TCATC]
background-corrected fluorescence (dye: Cy3 (3' terminal)): 0.454 ± 0.0046 | background-corrected fluorescence (dye: Cy5 (3' terminal)): 0.33 ± 0.024

TTTTTTCATGCTCATGAGCATTTTTTTTTTTTTTTGAGCT [TCGAG]
background-corrected fluorescence (dye: Cy3 (3' terminal)): 0.559 ± 0.024 | background-corrected fluorescence (dye: Cy5 (3' terminal)): 0.41 ± 0.022

TTTTTTCATGATCATGCTGATTTTTTTTTTTTTTTGCGAC [CAGCG]
background-corrected fluorescence (dye: Cy3 (3' terminal)): 0.518 ± 0.026 | background-corrected fluorescence (dye: Cy5 (3' terminal)): 0.394 ± 0.023

TTTTTTCATCATGATGATCATTTTTTTTTTTTTTTGGCCG [GCCGG]
background-corrected fluorescence (dye: Cy3 (3' terminal)): 0.597 ± 0.02 | background-corrected fluorescence (dye: Cy5 (3' terminal)): 0.449 ± 0.043

TTTTTTGAGCATCATGCTGCTTTTTTTTTTTTTTTCTGAA [AAGTC]
background-corrected fluorescence (dye: Cy3 (3' terminal)): 0.575 ± 0.026 | background-corrected fluorescence (dye: Cy5 (3' terminal)): 0.514 ± 0.029

TTTTTTCAGCATGATGATGCTTTTTTTTTTTTTTTGTCCA [ACCTG]
background-corrected fluorescence (dye: Cy3 (3' terminal)): 0.484 ± 0.021 | background-corrected fluorescence (dye: Cy5 (3' terminal)): 0.366 ± 0.023

TTTTTGCAGCATGAGCATGATTTTTTTTTTTTTTTTTCTC [CTCTT]
background-corrected fluorescence (dye: Cy3 (3' terminal)): 0.389 ± 0.03 | background-corrected fluorescence (dye: Cy5 (3' terminal)): 0.272 ± 0.035

TTTTTGCATGCTGCTGATGCTTTTTTTTTTTTTTTTAACA [ACAAT]
background-corrected fluorescence (dye: Cy3 (3' terminal)): 0.557 ± 0.022 | background-corrected fluorescence (dye: Cy5 (3' terminal)): 0.405 ± 0.033

TTTTTTGATGATGCTCATCATTTTTTTTTTTTTTTCCAGG [GGACC]
background-corrected fluorescence (dye: Cy3 (3' terminal)): 0.642 ± 0.016 | background-corrected fluorescence (dye: Cy5 (3' terminal)): 0.511 ± 0.057

TTTTTTCATGCGCATCATCATTTTTTTTTTTTTTTGATGG [GGTAG]
background-corrected fluorescence (dye: Cy3 (3' terminal)): 0.62 ± 0.012 | background-corrected fluorescence (dye: Cy5 (3' terminal)): 0.482 ± 0.024

TTTTTTCATGCTGAGCAGCATTTTTTTTTTTTTTTGACTT [TTCAG]
background-corrected fluorescence (dye: Cy3 (3' terminal)): 0.501 ± 0.016 | background-corrected fluorescence (dye: Cy5 (3' terminal)): 0.401 ± 0.021

TTTTTTGCGCAGCATGATGCTTTTTTTTTTTTTTTATTCA [ACTTA]
background-corrected fluorescence (dye: Cy3 (3' terminal)): 0.484 ± 0.035 | background-corrected fluorescence (dye: Cy5 (3' terminal)): 0.351 ± 0.021

TTTTTTGCTGCGCAGCAGCATTTTTTTTTTTTTTTAATTT
background-corrected fluorescence (dye: Cy3 (3' terminal)): 0.559 ± 0.029 | background-corrected fluorescence (dye: Cy5 (3' terminal)): 0.39 ± 0.025

TTTTTTCATGATGATGCTGATTTTTTTTTTTTTTTGCCAC [CACCG]
background-corrected fluorescence (dye: Cy3 (3' terminal)): 0.393 ± 0.022 | background-corrected fluorescence (dye: Cy5 (3' terminal)): 0.299 ± 0.015

TTTTTGCAGCAGCATGCTCATTTTTTTTTTTTTTTTTTAG [GATTT]
background-corrected fluorescence (dye: Cy3 (3' terminal)): 0.511 ± 0.015 | background-corrected fluorescence (dye: Cy5 (3' terminal)): 0.394 ± 0.048

TTTTTTCATGATCAGCATGATTTTTTTTTTTTTTTGCGTC [CTGCG]
background-corrected fluorescence (dye: Cy3 (3' terminal)): 0.481 ± 0.033 | background-corrected fluorescence (dye: Cy5 (3' terminal)): 0.366 ± 0.028

TTTTTGCATCATGCGCAGCATTTTTTTTTTTTTTTTGATT [TTAGT]
background-corrected fluorescence (dye: Cy3 (3' terminal)): 0.579 ± 0.035 | background-corrected fluorescence (dye: Cy5 (3' terminal)): 0.419 ± 0.05

TTTTTTGCTGATCATGCGCATTTTTTTTTTTTTTTACGAT [TAGCA]
background-corrected fluorescence (dye: Cy3 (3' terminal)): 0.519 ± 0.035 | background-corrected fluorescence (dye: Cy5 (3' terminal)): 0.429 ± 0.045

TTTTTTGCTGATGATGATGATTTTTTTTTTTTTTTACCCC [CCCCA]
background-corrected fluorescence (dye: Cy3 (3' terminal)): 0.358 ± 0.016 | background-corrected fluorescence (dye: Cy5 (3' terminal)): 0.271 ± 0.027

TTTTTTGCGCATCATGAGCATTTTTTTTTTTTTTTATGCT [TCGTA]
background-corrected fluorescence (dye: Cy3 (3' terminal)): 0.518 ± 0.029 | background-corrected fluorescence (dye: Cy5 (3' terminal)): 0.393 ± 0.02

TTTTTTGCTGCTGCTGCTCATTTTTTTTTTTTTTTAAAAG [GAAAA]
background-corrected fluorescence (dye: Cy3 (3' terminal)): 0.576 ± 0.021 | background-corrected fluorescence (dye: Cy5 (3' terminal)): 0.403 ± 0.03

TTTTTTGCGCATGATCATGCTTTTTTTTTTTTTTTATCGA [AGCTA]
background-corrected fluorescence (dye: Cy3 (3' terminal)): 0.635 ± 0.0066 | background-corrected fluorescence (dye: Cy5 (3' terminal)): 0.517 ± 0.043

TTTTTTGCTCAGCAGCATGCTTTTTTTTTTTTTTTAGTTA [ATTGA]
background-corrected fluorescence (dye: Cy3 (3' terminal)): 0.57 ± 0.0086 | background-corrected fluorescence (dye: Cy5 (3' terminal)): 0.409 ± 0.016

TTTTTGCAGCATGCTCAGCATTTTTTTTTTTTTTTTTAGT [TGATT]
background-corrected fluorescence (dye: Cy3 (3' terminal)): 0.619 ± 0.012 | background-corrected fluorescence (dye: Cy5 (3' terminal)): 0.5 ± 0.03

TTTTTTGCGCAGCATCAGCATTTTTTTTTTTTTTTATTGT [TGTTA]
background-corrected fluorescence (dye: Cy3 (3' terminal)): 0.589 ± 0.027 | background-corrected fluorescence (dye: Cy5 (3' terminal)): 0.486 ± 0.037

TTTTTTGCGCATGATGCTGCTTTTTTTTTTTTTTTATCAA [AACTA]
background-corrected fluorescence (dye: Cy3 (3' terminal)): 0.522 ± 0.012 | background-corrected fluorescence (dye: Cy5 (3' terminal)): 0.411 ± 0.035

TTTTTTGATCATGATGCTGCTTTTTTTTTTTTTTTCGCAA [AACGC]
background-corrected fluorescence (dye: Cy3 (3' terminal)): 0.552 ± 0.031 | background-corrected fluorescence (dye: Cy5 (3' terminal)): 0.443 ± 0.035

TTTTTGCATGATCAGCATGATTTTTTTTTTTTTTTTCGTC [CTGCT]
background-corrected fluorescence (dye: Cy3 (3' terminal)): 0.467 ± 0.034 | background-corrected fluorescence (dye: Cy5 (3' terminal)): 0.352 ± 0.03

TTTTTGCATGCTCAGCATGCTTTTTTTTTTTTTTTTAGTA [ATGAT]
background-corrected fluorescence (dye: Cy3 (3' terminal)): 0.566 ± 0.018 | background-corrected fluorescence (dye: Cy5 (3' terminal)): 0.491 ± 0.042

TTTTTTCATCATGCTGATGCTTTTTTTTTTTTTTTGGACA [ACAGG]
background-corrected fluorescence (dye: Cy3 (3' terminal)): 0.602 ± 0.022 | background-corrected fluorescence (dye: Cy5 (3' terminal)): 0.435 ± 0.053

TTTTTGCAGCATGCTGCTGATTTTTTTTTTTTTTTTTAAC [CAATT]
background-corrected fluorescence (dye: Cy3 (3' terminal)): 0.408 ± 0.011 | background-corrected fluorescence (dye: Cy5 (3' terminal)): 0.314 ± 0.026

TTTTTGCATCAGCAGCATGATTTTTTTTTTTTTTTTGTTC [CTTGT]
background-corrected fluorescence (dye: Cy3 (3' terminal)): 0.433 ± 0.0082 | background-corrected fluorescence (dye: Cy5 (3' terminal)): 0.31 ± 0.025

TTTTTTCATCAGCATCATGATTTTTTTTTTTTTTTGGTGC [CGTGG]
background-corrected fluorescence (dye: Cy3 (3' terminal)): 0.522 ± 0.0057 | background-corrected fluorescence (dye: Cy5 (3' terminal)): 0.419 ± 0.027
